The values that follow come from the nanobody polyreactivity screen of Harvey et al. (2022).

The data set in a line: yeast display, Sf9 membrane polyspecificity reagent, FACS + sequencing; frameworks hold sequencing errors. The method, boiled down:
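Genes from sorted yeast were amplified by colony PCR, read by MiSeq 2 × 250 sequencing and filtered on CDR length. These cells carried a synthetic nanobody library in Saccharomyces cerevisiae BJ5465 and were sorted by FACS into low and high (top ~1%) gates on anti-HA and streptavidin fluorescence. Polyreactivity is labelled according to the gate of origin.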
As for “QVQLVESGGGLVQAGGSLRLSCAASGNTFVTYAMGWYRQAPGKVRELVATISSSGGSTYYADSVKGRFTISRDNAKNTVYLQMNSLKPEDTAVYYCAKQAWAYALYTNFYSGDYGYWGQGTQVTVSS”, the “polyreactivity (PSR sort gate)” value is reported as “low polyreactivity”.

For “QVQLVESGGGLVQAGGSLRLSCAASGNTFVYYAMGWYRQAPGKERELVAGISRRSGSTYYADSVKGRFTISRDNAKNTVYLQMNSLKPEDTAVYYCAIGRTYLDAEDYWGQGSQVTVSS”, the “polyreactivity (PSR sort gate)” value is listed as “low polyreactivity”. The same measure for “QVQLVESGGGLVQAGGSLRLSCAASGNTFWFYRMGWYRQAPGKERELVAAITSGGSTDYADSVKGRFTISRDNAKNTVYLQMNSLKPEDTAVYYCAAEPVAYYGSSYGYWGQGTQVTVSS”: “low polyreactivity”; for “QVQLVESGGGLVQAGGSLRLSCAASGNTFWGNAMGWYRQAPGKERELVATISASAGSTYYADSVKGRFTISRDNAKNTVYLQMNSLKPDDTAVYYCAKTALRYLKHGRTKGDYWGQGTQVTLSS”: “low polyreactivity”.

With “QVQLVESGGGLVQAGGSLRLSCAASGNTFYGYAMGWYRQAPGKERELVAAITKTGGSTYYADSVKGRFTISRDNAKNTVYLQMNSLKPEDTAVYYCNAARETRPRDYYWGQGTQVTVSS”, the “polyreactivity (PSR sort gate)” value is on record as “low polyreactivity”. For the sequence “QVQLVESGGGLVQAGGSLRLSCAASGNTFYKNTMGWYRQAPWKERELVAAISQRGTRTYYADSVKGRFTISRDNAKNTVYLQMNSLKPEDTAVYYCATDLSQVGFDYWGQGTQVTVSS”, the “polyreactivity (PSR sort gate)” value is “high polyreactivity”. The value for “QVQLVESGGGLVQAGGSLRLSCAASGNTFYRYAMGRYRQAPGKEREFVAGITSRGGSTSYADSVKGRFTISRDSAKNTVYLQMNILKPEDTAVYYCAARYSKVHFAYDYWGQGTQVTVSS” was “high polyreactivity”. The value for “QVQLVESGGGLVQAGGSLRLSCAASGNTFYSNAMGWYRQAPGKERDLVAAISASGTTTYYADSVKGRFTISRDNAKNTVYLQMNSLKPEDTAVYYCAAVAPTRATRREDSWGQGTQVTVSS” was “high polyreactivity”. Regarding “QVQLVESGGGLVQAGGSLRLSCAASGNTFYTYGMGWYRQAPGKERELVAAINHNGGSTYYADSVKARFTISRDNAKNTVYLQMNSLKPEDTAVYYCNADYSTYVERGSSVYYWYDYWGQGTQVTVSS”, the “polyreactivity (PSR sort gate)” value was “low polyreactivity”. The same measure for “QVQLVESGGGLVQAGGSLRLSCAASGNTFYVYTMGWYRQAPGKERELVAAISSTGDRTYYADSVKGRFTISRDYAKNTVYLQMNSLKPEETAVYYCAARLYRGYRGYYYWGQGTQVTVSS”: “high polyreactivity”; for “QVQLVESGGGLVQAGGSLRLSCAASGNTFYYNAMGWYRQAPGKEREFVAAITSSGGGTYYADSVKGRFTISRDNAKNTVYLQMNSLKPEDTAVYYCAADATYRKQVIFYYWGQGTQVTVSS”: “low polyreactivity”; for “QVQLVESGGGLVQAGGSLRLSCAASGNTIIDYAMGWYRQPPGKERELVASITSGGGSTYYADSVKGRFTISRDNAKNTVYLQMNSLKPVDTAVYYCAAERYYSEAIFRSYDYWGQGTQVTVSS”: “low polyreactivity”. With “QVQLVESGGGLVQAGGSLRLSCAASGNTLASYAMGWYRQAPGKEREFVAAITNRSGSTYYADSVKGRFTISRDNAKNTVYLQMNSLKPEDTAVYYCAARYGRRSGQMGYWGQGTQVTVSS”, the “polyreactivity (PSR sort gate)” value is given as “high polyreactivity”.

Regarding “QVQLVESGGGLVQAGGSLRLSCAASGNTLGYNAAMGWYRQAPGKERELVAAITENGGSTYYADSVKGRFTISRDNAKNTVYLQMNSLKPEDTAVYYCATAPYYYRGAYGFEYWGQGTQVTVSS”, the “polyreactivity (PSR sort gate)” value is “low polyreactivity”. As for “QVQLVESGGGLVQAGGSLRLSCAASGNTLIQYAMGWIIQAPGKEREVLAGISGTDDSTYYADSVKGRFTISRDNAKNTVYFQMTSLKPEDRSVYYCATREWYDKYPNIYVSFDYWGQGTQVTVSS”, the “polyreactivity (PSR sort gate)” value was “low polyreactivity”. The same measure for “QVQLVESGGGLVQAGGSLRLSCAASGNTLQVYAMGGYRPAPGKERELVARLTGGGRTSYADSVKGRFTISRDNAKTTVYLQMHSLKPEDTAVYYCATVYYGHIVLYDYWGQGTQVTVSA”: “low polyreactivity”.

On to “QVQLVESGGGLVQAGGSLRLSCAASGNTQGYNAAMGWYRQAPGKERELVAAINSGGGSTYYADSVKGRFTISRDNAKNTVYLQMNSLKPEDTAVYYCAARYRSRYDYYYDRDYWGQGTQVTVSS”, for which the “polyreactivity (PSR sort gate)” value is on record as “low polyreactivity”. Take “QVQLVESGGGLVQAGGSLRLSCAASGNTSGHNAMGWYRQAPGKERELVADIRTGDSTNYADSVKGRFTISRDNAKNTVYLQMNSLKPEDTAVYYCAADSAYDVTSYGYWGQGTQVTVSS”: the “polyreactivity (PSR sort gate)” value is on record as “low polyreactivity”.

In the case of “QVQLVESGGGLVQAGGSLRLSCAASGPIFHPYAMGWYRHAPGKERELVAAITNSGGITYADSVKGRFTISRDNAKNTVYLQMNSLKPEDTAVYYCNTATNRFHYKYRKPYDYWGQGTQVTVSS”, the “polyreactivity (PSR sort gate)” value is given as “low polyreactivity”. Regarding “QVQLVESGGGLVQAGGSLRLSCAASGPIFKRNAMGWYRQAPGKERELVAAISGSGGRTYYADSVKGRFTISRDNAKYTVYLQMNSLKREDTAVYYCNAGGSYYARGMDYWGQGTQVTVSS”, the “polyreactivity (PSR sort gate)” value was “high polyreactivity”.

As for “QVQLVESGGGLVQAGGSLRLSCAASGPIFVENAMGRNRPAPGKERELVAAISGGGSTDYADSVKGRFTISRDNAKNTVYLEMNSLKPVYTAVYFCNARQVFTTAGGEMDYWGQGTQVTVSS”, the “polyreactivity (PSR sort gate)” value is reported as “low polyreactivity”. On to “QVQLVESGGGLVQAGGSLRLSCAASGPIIDFYAMGWSRKAPGKERELVAAISWRGGSTYYADSVKGRFTISRDNAKNSVYLQMNSLKPEDTAVYYCANRFGPRYYWGQGTQVTVSS”, for which the “polyreactivity (PSR sort gate)” value is listed as “low polyreactivity”. Take “QVQLVESGGGLVQAGGSLRLSCAASGPISAIYDMGWYRQAPGKEREVVAAISGGTSTYYADSVKGRFTISRDNAKNTVYLQMNSLKPEDTAVYYCNAEASSYHGVEDEYDYWGQGTQVTVSS”: the “polyreactivity (PSR sort gate)” value is listed as “low polyreactivity”. With “QVQLVESGGGLVQAGGSLRLSCAASGPISRYNTMGWYRQAPGKERELVAAISYRGGSTYYADSVKGRFTISRDNAKNTVYLQMNSLKPEDTAVYYCNKVRSSVRSGGYGYWGQGTQVTVSS”, the “polyreactivity (PSR sort gate)” value is on record as “high polyreactivity”. Take “QVQLVESGGGLVQAGGSLRLSCAASGPTFTPYAMGWYRPAPGKERELVAAISGGGSTNYADSVKGRFTISRDNAKNTVFLQMNSLKPEDTAVYYCAKRVYRGRRMDYWGQGTQVTVSS”: the “polyreactivity (PSR sort gate)” value is “high polyreactivity”.

Consider “QVQLVESGGGLVQAGGSLRLSCAASGRFFSWNAMGWYRPAPGTERELVAAISSSVGSTYYADSVKGRFTISRDNAQNTVYFQMNSRKPEDTAVYYCNAVPIGQWAYDYWGQGTQVTVSS”, for which the “polyreactivity (PSR sort gate)” value is “high polyreactivity”. The same measure for “QVQLVESGGGLVQAGGSLRLSCAASGRGYYAMGWYRQAPGKERELVAAISRGGNTKYADSVKGRFTISRDNAKNTVYLQMNSLKPEDTAVYYCYTDWADYYYYTDYDYWGQGTQVTVSS”: “high polyreactivity”; for “QVQLVESGGGLVQAGGSLRLSCAASGRICGYNSMGWYRQAPGKERELVAAISSSGGSTYYADSVKGRFTISRDYATNTVYVQMNSLKREATAVYYCAARIGYRSWAWDAYEYCGQGTQVTVSS”: “low polyreactivity”. The same measure for “QVQLVESGGGLVQAGGSLRLSCAASGRIFADNGMGWYRQAPGKERELVASITSSGGDTYYADSVKGRFTISRDNAKNTVYLQMNSLKPEDTAVYYCATECSWLFYGVWVVTFGDDYWGQGTQVTVSS”: “low polyreactivity”; for “QVQLVESGGGLVQAGGSLRLSCAASGRIFADNGMGWYRQAPGKERELVASITSSGGDTYYADSVKGRFTISRDNAKNTVYLQMNSLKPEDTAVYYCATEFSWLFYGVWVVTFGDDYWGQGTQVTVSS”: “low polyreactivity”.

Regarding “QVQLVESGGGLVQAGGSLRLSCAASGRIFADYAMGWYRQAPGKERELVATITSGDRTYYADSVKGRFTTSRDNAKNTVYLQMNSLKPEDTAVYYCAAYKPWYVGLYPWYDYWGQGTQVTVSS”, the “polyreactivity (PSR sort gate)” value is “low polyreactivity”. On to “QVQLVESGGGLVQAGGSLRLSCAASGRIFAFNAMGWYRQAPGKERELVADITSSGVNTYYADSVKGRFTISRDNAKNTVYLQMNSLKPEDTAVYYCAARSYLRWWVGMEYWGQGTQVTVSS”, for which the “polyreactivity (PSR sort gate)” value was “low polyreactivity”. With “QVQLVESGGGLVQAGGSLRLSCAASGRIFAFYAMGWYRPAPGKEREFVAAITYSGGNTNYADSVKGRFTISRDNAKNTVYIEMNSLKPEDTPVYYCAADLVYGVYYQEDYWGQGTQVTVSS”, the “polyreactivity (PSR sort gate)” value is listed as “low polyreactivity”. The same measure for “QVQLVESGGGLVQAGGSLRLSCAASGRIFAFYAMGWYRQAPGKEREFVAAISWSGGSTYYADSVKGRFTISRDNAKNTVYLQMNSLKPEDTAVYYCAARSRVRHSGMNYWGQGTQVTVSS”: “high polyreactivity”; for “QVQLVESGGGLVQAGGSLRLSCAASGRIFAFYAMGWYRQAPGKERELVAAISWSGGSTYFADSVKGRFTISRDNAKNTVYLQMHSLIPEDTAVYYCAAYRTRGSAYPYDYWGQGTQVTVSS”: “high polyreactivity”.

Regarding “QVQLVESGGGLVQAGGSLRLSCAASGRIFAGYAMGWYRQAPGKERELVASIRYSGGSTYADSVKGRFPISRDNAKNTVYLQMNSLKAEDTAVYYCAADIRQFYVGWGSTLWYGHDYWGQGTQVTVSS”, the “polyreactivity (PSR sort gate)” value is listed as “low polyreactivity”. As to “QVQLVESGGGLVQAGGSLRLSCAASGRIFAGYVMGWYRQAPGKERELVAAISWRGGRTYYADSVKGRFTISRDNAKNTVYLQMNSLKPEDTAVYYCNAPYAVGYPADDYWGQGTQVTVSS”, the “polyreactivity (PSR sort gate)” value is “high polyreactivity”. “QVQLVESGGGLVQAGGSLRLSCAASGRIFAGYVMGWYRQAPGKERELVAAITSGGGTDYADSVKGRFTISRDNAKNTVYLQMNSQKPEDTAVYYCAADPYYSWFGWDYEYWGQGTQVTVSS”: the “polyreactivity (PSR sort gate)” value is recorded as “high polyreactivity”. The value for “QVQLVESGGGLVQAGGSLRLSCAASGRIFAHNAMGWYRQAPGKERELVAAINWSGGSTYYADSVTWRFTISRDNAKNTVYLQMNSLKPEDTAVYYCNNRYIHRSRAGYDYWGQGTQVTVSS” was “low polyreactivity”; that for “QVQLVESGGGLVQAGGSLRLSCAASGRIFAHYAMGWYRQAPGKERELVAAISSGGSTYYADSVKGRFTISRDNEKNTVYLQINSLKPEDTAVYYCAADYLYPPYYEFYYWGQGTQVTVSS” was “low polyreactivity”.
